The source of these data is the supplement of paper PMC5998384.

The test system of series [1] is HeLa Kyoto. Put plainly: solubility in G1/S (NP-40 vs SDS abundance) (log2 ratio); higher = more soluble. The conditions noted are these: cell cycle stage: G1/S.
Series [2] has as its system HeLa Kyoto. The series can be described thus: melting temperature (median over replicates), in situ; higher = more thermally stable.
The test system of series [3] is HeLa Kyoto. The series can be described thus: solubility change mitosis vs G1/S (difference of NP-40 vs SDS log2 ratios) (log2 ratio difference); higher = more soluble in mitosis.
Series [4] deals with HeLa Kyoto. The series can be described thus: thermal stability score vs G1/S (z-score of summed log2 fold changes over temperatures); higher = more thermally stable than in G1/S.
Setting [5] is: cell cycle stage: early G1 (4.5 h after nocodazole release).
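Wherever melting temperature (median over replicates), in situ is given: HeLa Kyoto cells synchronized by double thymidine or nocodazole block, proteins quantified by TMT10plex mass spectrometry, three independent biological replicates.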
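Wherever solubility change mitosis vs G1/S (difference of NP-40 vs SDS log2 ratios) is given: synchronized HeLa Kyoto cells (double thymidine block for G1/S, nocodazole release for mitosis), protein amounts in NP-40 versus SDS lysates quantified by mass spectrometry, three biological replicates.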
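Wherever solubility in G1/S (NP-40 vs SDS abundance) is given: HeLa Kyoto cells arrested at G1/S by double thymidine block, proteins quantified by TMT10plex mass spectrometry in mild NP-40 versus SDS extracts, three biological replicates.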
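Wherever thermal stability score vs G1/S (z-score of summed log2 fold changes over temperatures) is given: synchronized HeLa Kyoto cells, proteins quantified by TMT10plex mass spectrometry, three biological replicates, mitosis taken 0.5 h after nocodazole release, G1/S directly after double thymidine block.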

Take “MKAIKKSLTEEEYLYLDFSHQTEGCIFPLHTSVTLFLLSYCDCKIFKICLVVTKEVSRDSSLLRDDLIQDVEIQIISRQELPPIVQNCCLPAVVERSDNFCRAGLAVVLRHIIQKSYEADPLKKELLELLGFKKTCLKACAEVSQWTRLCELTIPLAIENFLRESSDQPPTIPVEILQLEKKLSEPVRVHNDDKLRRQKLKQQKADGVGPPLTKGKAKSKVHTQETSEGLDSSSKSLELKVAFSKLTVQEEPATTNREPSHIRKAKASDLPPLEHVFAEGLYFTLADIVLLPCIHHFLVIISRKFSEKLVEFPLLASWYQRIQEVPGVKTAASKCGIQFLHLPKLLTTSTEQHPNLCEVPGVEEQSDPLFIGGPRPTMAKLMEKGIEVMFSPHPCPTWTLDWNVLPAAVSPKEGKMSSDRALRKQQQLNNLVYVVTNQAKPGDRIVDFCSGGGHVGIVLAHMLPSCQVTLIENKELSLIRAKKRSDELGLSNIWFIQANMEYFTGMFNIGVALHACGVATDMVIEHCIKTRASFVTCPCCYGFIQNTSKFNFPKSEQFKKTLSYKEHMILCRFADQTAVQLPPQRRLIGKQCMCLVDLDRARAAEECGYSVQVISMEPESCSPKNNMIVGVPI [GSTCD]”: in the series with HeLa Kyoto [1], the “solubility in G1/S (log2)” value is -0.0129. Further, the melting temperature was determined as 51.7 °C in the series on HeLa Kyoto [2] (cell cycle stage: G1/S) and 53.4 °C with HeLa Kyoto [2] (cell cycle stage: mitosis). Also, the “solubility change mitosis (log2)” value in the series on HeLa Kyoto [3] is -0.116. Besides, the figures for the thermal stability score in the series with HeLa Kyoto [4] (setting [5]) and in the series on HeLa Kyoto [4] (cell cycle stage: mitosis) were -0.282 and -1.67, respectively.
Consider “MKCVFVTVGTTSFDDLIACVSAPDSLQKIESLGYNRLILQIGRGTVVPEPFSTESFTLDVYRYKDSLKEDIQKADLVISHAGAGSCLETLEKGKPLVVVINEKLMNNHQLELAKQLHKEGHLFYCTCRVLTCPGQAKSIASAPGKCQDSAALTSTAFSGLDFGLLSGYLHKQALVTATHPTCTLLFPSCHAFFPLPLTPTLYKMHKGWKNYCSQKSLNEASMDEYLGSLGLFRKLTAKDASCLFRAISEQLFCSQVHHLEIRKACVSYMRENQQTFESYVEGSFEKYLERLGDPKESAGQLEIRALSLIYNRDFILYRFPGKPPTYVTDNGYEDKILLCYSSSGHYDSVYSKQFQSSAAVCQAVLYEILYKDVFVVDEEELKTAIKLFRSGSKKNRNNAVTGSEDAHTDYKSSNQNRMEEWGACYNAENIPEGYNKGTEETKSPENPSKMPFPYKVLKALDPEIYRNVEFDVWLDSRKELQKSDYMEYAGRQYYLGDKCQVCLESEGRYYNAHIQEVGNENNSVTVFIEELAEKHVVPLANLKPVTQVMSVPAWNAMPSRKGRGYQKMPGGYVPEIVISEMDIKQQKKMFKKIRGKEVYMTMAYGKGDPLLPPRLQHSMHYGHDPPMHYSQTAGNVMSNEHFHPQHPSPRQGRGYGMPRNSSRFINRHNMPGPKVDFYPGPGKRCCQSYDNFSYRSRSFRRSHRQMSCVNKESQYGFTPGNGQMPRGLEETITFYEVEEGDETAYPTLPNHGGPSTMVPATSGYCVGRRGHSSGKQTLNLEEGNGQSENGRYHEEYLYRAEPDYETSGVYSTTASTANLSLQDRKSCSMSPQDTVTSYNYPQKMMGNIAAVAASCANNVPAPVLSNGAAANQAISTTSVSSQNAIQPLFVSPPTHGRPVIASPSYPCHSAIPHAGASLPPPPPPPPPPPPPPPPPPPPPPPPPPPALDVGETSNLQPPPPLPPPPYSCDPSGSDLPQDTKVLQYYFNLGLQCYYHSYWHSMVYVPQMQQQLHVENYPVYTEPPLVDQTVPQCYSEVRREDGIQAEASANDTFPNADSSSVPHGAVYYPVMSDPYGQPPLPGFDSCLPVVPDYSCVPPWHPVGTAYGGSSQIHGAINPGPIGCIAPSPPASHYVPQGM [ALG13]”, for which the “solubility in G1/S (log2)” value in the series on HeLa Kyoto [1] amounted to 0.392. Also, the melting temperature came out at 53.4 °C in the series with HeLa Kyoto [2] (cell cycle stage: G1/S) and 52.2 °C with HeLa Kyoto [2] (cell cycle stage: mitosis). The “solubility change mitosis (log2)” value in the series with HeLa Kyoto [3] came to 0.0555. Moreover, the figures for the thermal stability score with HeLa Kyoto [4] (setting [5]) and with HeLa Kyoto [4] (cell cycle stage: mitosis) were 2.01 and -0.34, respectively.
As for “MKDVPGFLQQSQNSGPGQPAVWHRLEELYTKKLWHQLTLQVLDFVQDPCFAQGDGLIKLYENFISEFEHRVNPLSLVEIILHVVRQMTDPNVALTFLEKTREKVKSSDEAVILCKTAIGALKLNIGDLQVTKETIEDVEEMLNNLPGVTSVHSRFYDLSSKYYQTIGNHASYYKDALRFLGCVDIKDLPVSEQQERAFTLGLAGLLGEGVFNFGELLMHPVLESLRNTDRQWLIDTLYAFNSGNVERFQTLKTAWGQQPDLAANEAQLLRKIQLLCLMEMTFTRPANHRQLTFEEIAKSAKITVNEVELLVMKALSVGLVKGSIDEVDKRVHMTWVQPRVLDLQQIKGMKDRLEFWCTDVKSMEMLVEHQAHDILT [PSMD13]”, the “solubility in G1/S (log2)” value in the series with HeLa Kyoto [1] came out at 0.0175. For the same sequence, the melting temperature with HeLa Kyoto [2] (cell cycle stage: G1/S) amounted to 53.2 °C; in the series on HeLa Kyoto [2] (cell cycle stage: mitosis), 51.3 °C. The “solubility change mitosis (log2)” value with HeLa Kyoto [3] was -0.181. For the same sequence, the values for the thermal stability score with HeLa Kyoto [4] (setting [5]) and with HeLa Kyoto [4] (cell cycle stage: mitosis) were 1.44 and 2.56, respectively.
For the sequence “MKEEKEHRPKEKRVTLLTPAGATGSGGGTSGDSSKGEDKQDRNKEKKEALSKVVIRRLPPTLTKEQLQEHLQPMPEHDYFEFFSNDTSLYPHMYARAYINFKNQEDIILFRDRFDGYVFLDNKGQEYPAIVEFAPFQKAAKKKTKKRDTKVGTIDDDPEYRKFLESYATDNEKMTSTPETLLEEIEAKNRELIAKKTTPLLSFLKNKQRMREEKREERRRREIERKRQREEERRKWKEEEKRKRKDIEKLKKIDRIPERDKLKDEPKIKVHRFLLQAVNQKNLLKKPEKGDEKELDKREKAKKLDKENLSDERASGQSCTLPKRSDSELKDEKPKRPEDESGRDYREREREYERDQERILRERERLKRQEEERRRQKERYEKEKTFKRKEEEMKKEKDTLRDKGKKAESTESIGSSEKTEKKEEVVKRDRIRNKDRPAMQLYQPGARSRNRLCPPDDSTKSGDSAAERKQESGISHRKEGGEE [UPF3B]”, the “solubility in G1/S (log2)” value in the series with HeLa Kyoto [1] is -0.279. In addition, the melting temperature is 50.6 °C in the series on HeLa Kyoto [2] (cell cycle stage: G1/S) and 50.5 °C in the series with HeLa Kyoto [2] (cell cycle stage: mitosis). The “solubility change mitosis (log2)” value in the series on HeLa Kyoto [3] came out at 0.245. Moreover, the thermal stability score in the series with HeLa Kyoto [4] (setting [5]) was 0.0687; with HeLa Kyoto [4] (cell cycle stage: mitosis), -0.398.
